Biological target: T1, septin-7 (commercially purified, LSBio) (UniProt Q16181 1-437, labelled with RED-tris-NTA 2nd generation dye (Monolith His-Tag labeling kit))
T1 sequence (looked up): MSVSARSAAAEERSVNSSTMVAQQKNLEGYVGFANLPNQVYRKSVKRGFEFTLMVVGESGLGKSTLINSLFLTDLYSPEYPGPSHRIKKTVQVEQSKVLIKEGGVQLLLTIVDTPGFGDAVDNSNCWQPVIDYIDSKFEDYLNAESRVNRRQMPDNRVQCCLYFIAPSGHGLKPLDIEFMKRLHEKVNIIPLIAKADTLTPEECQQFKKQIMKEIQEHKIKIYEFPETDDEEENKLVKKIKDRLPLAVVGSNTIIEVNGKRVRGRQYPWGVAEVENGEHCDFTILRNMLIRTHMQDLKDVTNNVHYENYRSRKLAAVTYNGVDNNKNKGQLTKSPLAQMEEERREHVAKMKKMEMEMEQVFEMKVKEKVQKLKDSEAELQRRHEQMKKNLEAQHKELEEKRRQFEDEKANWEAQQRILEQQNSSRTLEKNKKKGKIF
Assay: MST

- Kd: 6.84 µM
B1: SOD1 trimer, F20L-H46Q (FH) trimer-stabilising mutant (enzyme)
chain: not shown

From article PMC11455619 (Structure (London, England : 1993), 2024)
